Experimental data taken from IntAct's records for PubMed 18615013.

B1: Aurora kinase A (Homo sapiens), O14965 (parent)
chain: MDRSKENCISGPVKATAPVGGPKRVLVTQQFPCQNPLPVNSGQAQRVLCPSNSSQRIPLQAQKLVSSHKPVQNQKQKQLQATSVPHPVSRPLNNTQKSKQPLPSAPENNPEEELASKQKNEESKKRQWALEDFEIGRPLGKGKFGNVYLAREKQSKFILALKVLFKAQLEKAGVEHQLRREVEIQSHLRHPNILRLYGYFHDATRVYLILEYAPLGTVYRELQKLSKFDEQRTATYITELANALSYCHSKRVIHRDIKPENLLLGSAGELKIADFGWSVHAPSSRRTTLCGTLDYLPPEMIEGRMHDEKVDLWSLGVLCYEFLVGKPPFEANTYQETYKRISRVEFTFPDFVTEGARDLISRLLKHNPSQRPMLREVLEHPWITANSSKPSNCQNKESASKQS

Variants of: B1
Conditions: with plk1_human PLK1, P53350
Chain of plk1_human PLK1, P53350 (P53350 whole entry): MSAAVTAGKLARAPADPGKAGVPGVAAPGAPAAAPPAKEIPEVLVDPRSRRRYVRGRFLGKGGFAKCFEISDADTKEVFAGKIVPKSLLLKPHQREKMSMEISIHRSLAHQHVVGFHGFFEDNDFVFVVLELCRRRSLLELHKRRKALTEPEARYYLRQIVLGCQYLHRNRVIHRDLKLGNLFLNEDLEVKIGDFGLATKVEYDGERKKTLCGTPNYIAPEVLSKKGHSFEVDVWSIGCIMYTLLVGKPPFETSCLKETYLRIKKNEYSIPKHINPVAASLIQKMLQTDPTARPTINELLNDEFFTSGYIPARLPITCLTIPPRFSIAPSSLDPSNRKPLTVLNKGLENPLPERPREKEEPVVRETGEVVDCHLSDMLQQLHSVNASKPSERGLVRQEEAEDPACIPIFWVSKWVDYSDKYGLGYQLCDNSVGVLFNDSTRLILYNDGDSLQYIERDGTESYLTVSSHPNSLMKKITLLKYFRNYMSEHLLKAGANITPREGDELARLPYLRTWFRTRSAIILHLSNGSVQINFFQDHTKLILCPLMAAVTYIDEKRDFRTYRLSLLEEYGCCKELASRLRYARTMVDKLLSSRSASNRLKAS

Row | Variant | effect of a mutation on the interaction
1 | MDRSKENCISGPVKATAPVGGPKRVLVTQQFPCQNPLPVNSGQAQRVLCPSNSSQRIPLQAQKLVSSHKPVQNQKQKQLQATSVPHPVSRPLNNTQKSKQPLPSAPENNPEEELASKQKNEESKKRQWALEDFEIGRPLGKGKFGNVYLAREKQSKFILALRVLFKAQLEKAGVEHQLRREVEIQSHLRHPNILRLYGYFHDATRVYLILEYAPLGTVYRELQKLSKFDEQRTATYITELANALSYCHSKRVIHRDIKPENLLLGSAGELKIADFGWSVHAPSSRRTTLCGTLDYLPPEMIEGRMHDEKVDLWSLGVLCYEFLVGKPPFEANTYQETYKRISRVEFTFPDFVTEGARDLISRLLKHNPSQRPMLREVLEHPWITANSSKPSNCQNKESASKQS [K162R] | disrupting interaction
